Usually EC50 stands for the midpoint of the concentration-response curve. As a reminder, the Kd is the free concentration of one partner at which half of the binding sites on the other are occupied at equilibrium, for simple one-to-one binding. A high value points to a looser complex. In general, koff refers to the first-order rate constant of dissociation. As a reminder, the kon is a measure of how fast the partners come together. The low end stands for slower complex formation, the high end for faster complex formation.

In assay [1] the target is T1, human 5T4 on transfected cells (human, UniProt Q13641 32-420).
T1 construct: whole, on cells; for B16 and A9 cells only a 5T4 construct is named; also called 5T4-transfected B16 cells; B16-5T4
T1 sequence (looked up): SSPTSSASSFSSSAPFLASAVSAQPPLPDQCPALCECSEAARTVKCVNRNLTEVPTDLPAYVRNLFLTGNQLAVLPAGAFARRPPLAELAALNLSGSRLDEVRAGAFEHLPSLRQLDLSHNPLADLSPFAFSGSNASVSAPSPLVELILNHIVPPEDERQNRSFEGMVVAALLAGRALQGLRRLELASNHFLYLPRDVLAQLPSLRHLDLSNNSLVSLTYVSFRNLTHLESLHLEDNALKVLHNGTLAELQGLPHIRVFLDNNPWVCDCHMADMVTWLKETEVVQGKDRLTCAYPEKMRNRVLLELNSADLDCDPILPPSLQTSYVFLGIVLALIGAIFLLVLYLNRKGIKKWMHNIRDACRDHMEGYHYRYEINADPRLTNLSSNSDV
Put plainly: flow cytometry, 5T4-transfected A9 cells. The method, then:
(§1) Analysis of 5T4 mAb binding with flow cytometry was performed using 5T4-transfected cell lines and as negative control, mock transfected cells. Three different transfected cell lines used were used for this study; B16, A9 and CHO, transfected either with a 5T4 construct or with an empty vector control construct. Cells were stained with 5T4 antibodies diluted in FACS buffer (PBS, 0.5% BSA and 0.02% NaN₃). […] Samples were analysed either on a FACSCalibur or a FACSverse (BD Biosciences, Heidelberg, Germany) and mean fluorescence intensity (MFI) determined.
Background: In flow cytometry, cells or beads pass a laser one at a time.

Assay [2] has as its target T1, human 5T4 on transfected cells. The assay is described as follows: flow cytometry, 5T4-transfected B16 cells. The method, then: as §1
Assay [3] has as its target T2, cynomolgus 5T4 (Macaca mulatta (cynomolgus)).
T2 construct: whole, on cells; stably transfected CHO cells; also called cyno5T4; cy5T4
The assay is described as follows: flow cytometry, CHO cells transfected with cynomolgus 5T4. The method, then: (§2) The potency of 5T4 antibodies in binding to cynomolgus 5T4 was determined by flow cytometry. CHO cells were stably transfected with […] (cynomolgus) 5T4. […] Samples were analysed either on a FACSCalibur or a FACSverse (BD Biosciences, Heidelberg, Germany) and mean fluorescence intensity (MFI) determined. […] To compare the EC50 values between human and cynomolgus 5T4, the cy5T4/hu5T4 ratio was calculated from the experiment with the full dose-response.

Assay [4] has as its target T1, human 5T4 on transfected cells. The assay is described as follows: flow cytometry, CHO cells stably transfected with human 5T4. The method, then:
as §1
In a new attempt to calculate EC50 with flow cytometry a 5T4 mAb dose response experiment was performed using CHO cells stably transfected with human 5T4.

Assay [5] concerns the target T3, 5T4 (immobilised for SPR) (UniProt Q13641 32-355, limits assumed, biotinylated on the MASS-1 platform).
T3 construct: also called biotinylated 5T4
T3 sequence (looked up): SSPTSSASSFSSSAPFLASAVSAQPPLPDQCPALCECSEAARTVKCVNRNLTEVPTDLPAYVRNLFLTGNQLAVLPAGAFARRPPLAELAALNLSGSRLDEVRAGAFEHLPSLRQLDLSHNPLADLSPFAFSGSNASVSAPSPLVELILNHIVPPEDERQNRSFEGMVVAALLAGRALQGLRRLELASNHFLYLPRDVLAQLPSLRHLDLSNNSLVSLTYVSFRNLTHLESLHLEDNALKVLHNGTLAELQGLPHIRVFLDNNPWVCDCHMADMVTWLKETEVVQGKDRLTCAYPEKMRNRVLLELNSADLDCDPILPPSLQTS
Put plainly: SPR Biacore 3000, 5T4 amine-coupled, mAb injected, 1:1 Langmuir. Here is the method: (§3) Binding kinetics of the 5T4-specific mAbs have been studied using two different SPR-based platforms, the Biacore 3000 (GE Healthcare) and the MASS-1 platform (Sierra Sensors). Briefly, 5T4 was captured at the sensor chip surface either via direct amine coupling (Biacore platform) or using a streptavidin coated chip and biotinylated 5T4 (MASS-1 platform). The different 5T4-specific mAbs were then injected over the chip in increasing concentrations and the association and dissociation rates studied in real time. A 1:1 Langmuir model was used for curve fitting.
Background: In SPR one partner is held on a chip, and binding of the other changes the refractive index at the surface.

The target of assay [6] is T3, 5T4 (immobilised for SPR). Put plainly: SPR MASS-1, biotinylated 5T4 on streptavidin chip, mAb injected, 1:1 Langmuir. The method, then:
as §3

The target in assay [7] is T2, cynomolgus 5T4. Put plainly: flow cytometry, CHO cells with cynomolgus 5T4 against CHO cells with human 5T4. Here is the method: as §2
For assay [8], the target named is T4, Human OX40 (R&D Systems, 3388-OX) (human, UniProt P43489 29-216).
T4 construct: bought; also called OX40-Fc; Human OX40 (R&D systems, #3358_OX)
T4 sequence (looked up): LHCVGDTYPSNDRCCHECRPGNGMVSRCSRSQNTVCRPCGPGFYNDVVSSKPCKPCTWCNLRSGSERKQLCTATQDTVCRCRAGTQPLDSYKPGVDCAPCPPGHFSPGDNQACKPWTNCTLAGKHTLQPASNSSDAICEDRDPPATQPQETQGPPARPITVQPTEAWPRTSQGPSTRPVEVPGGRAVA
The assay is described as follows: dual ELISA: OX40-Fc coated, detection with biotinylated 5T4-Fc and streptavidin-HRP, luminescence. Here is the method:
A dual ELISA was used to detect simultaneous binding of the two targets by the bispecific antibodies. ELISA plates were coated with OX40-Fc (R&D systems, #3388-OX, 0.5 μg/ml) over night at 4° C. followed by blocking with PBST+2% bovine serum albumin (BSA) for 1 h at room temperature (RT). […] Biotinylated 5T4-Fc (0.5 μg/ml), followed by HRP-labelled streptavidin (Pierce #21126) were used for detection. Super signal ELISA Pico Chemiluminescent Substrate (Thermo Scientific, #37069) was used as substrate and luminescence was measured using FLUOstar Optima.
A general note: ELISA stands for enzyme-linked immunosorbent assay.

B1: 1210/1211 (antibody, IgG1, V domains shown)
VH: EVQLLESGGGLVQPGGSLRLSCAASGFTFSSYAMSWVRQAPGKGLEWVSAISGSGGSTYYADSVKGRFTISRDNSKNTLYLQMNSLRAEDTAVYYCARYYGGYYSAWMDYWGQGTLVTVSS
VL: DIQMTQSPSSLSASVGDRVTITCRASQSISSYLNWYQQKPGKAPKLLIYAASSLQSGVPSRFSGSGSGTDFTLTISSLQPEDFATYYCQQTYGYLHTFGQGTKLEIK
notes: 5T4 antibody
As to B1, in assay [1], the “Normalized EC50 (to 1628)” value was 1.8 ratio to 1628. In addition, in assay [2], the EC50 turned out to be 0.8 nM and the “Normalized EC50 (to 1628)” value was 1.6 ratio to 1628. In addition, a half-maximal effect with cynomolgus 5T4 [3] (EC50) was put at 0.7 nM. Further, in assay [4], the EC50 came to 0.81 nM and the “EC50 normalized to reference 1628” value was 1.6 ratio to 1628. In assay [5], this molecule displayed a dissociation constant (Kd) of 0.2 nM, a koff of 0.0001 s⁻¹ and a kon of 500000 M⁻¹ s⁻¹. Also, in assay [6], the koff was determined as 0.00019 s⁻¹ and the kon came out at 510000 M⁻¹ s⁻¹. Moreover, in the assay with cynomolgus 5T4 [7], the “Ratio EC50cyno-5T4/h5T4” value turned out to be 0.9 ratio. Also, the binding result in assay [8] was “no binding (tested: about 80 nM (log[conc ab] 1.9))”.

B2: 1206/1207 (antibody, V domains shown)
VH: EVQLLESGGGLVQPGGSLRLSCAASGFTFSGSSMSWVRQAPGKGLEWVSSIYYSGSGTYYADSVKGRFTISRDNSKNTLYLQMNSLRAEDTAVYYCARYGRNVHPYNLDYWGQGTLVTVSS
VL: DIQMTQSPSSLSASVGDRVTITCRASQSISSYLNWYQQKPGKAPKLLIYAASSLQSGVPSRFSGSGSGTDFTLTISSLQPEDFATYYCQQGYYYLPTFGQGTKLEIK
notes: 5T4 antibody
For the molecule B2, the “Normalized EC50 (to 1628)” value in assay [1] was 2.9 ratio to 1628. Also, in assay [2], a half-maximal response (EC50) required 1.8 nM and the “Normalized EC50 (to 1628)” value is 3.9 ratio to 1628. The molecule also displayed an EC50 with cynomolgus 5T4 [3] of 1.53 nM. Besides, in assay [4], the EC50 turned out to be 0.51 nM and the “EC50 normalized to reference 1628” value was 1 ratio to 1628. For the same molecule, in assay [5], the Kd came out at 2.3 nM, the koff turned out to be 0.00028 s⁻¹ and the on-rate (kon) was 130000 M⁻¹ s⁻¹. In assay [6], the koff turned out to be 0.00013 s⁻¹ and the kon came to 1.4e+06 M⁻¹ s⁻¹. Moreover, the “Ratio EC50cyno-5T4/h5T4” value in the assay with cynomolgus 5T4 [7] is 3 ratio.
